We go through 17 molecules from patent US20260008815A1, “CYCLIC PEPTIDE OR SALT THEREOF, AND USES THEREOF” (FUJIFILM Corporation, priority 2023, published 2026).

The assay deals with T1, Recombinant Human FGFR2 alpha (IIIc) Fc Chimera Protein, CF (R&D systems, 712-FR-050) (human, UniProt P21802 22-377).
T1 construct: bought; not shown: Fc part of the chimera
Put plainly: ELISA on plate-bound FGFR2-Fc. An outline of the steps:
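Plate-immobilized FGFR2 alpha (IIIc)-Fc (5 ng/well) incubated with peptide 3 h at room temperature, then anti-Myc antibody 2 h and chemiluminescent ELISA substrate. Signal corrected by subtracting FGFR-free wells; binding affinity scored into categories from the dose-response.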

Bridge positions count the residues as written; N and C are the ends. Ends that are not written are not given here. COCH2 = acetyl group that carries the bridge

T1 sequence (P21802 22-377, change not shown): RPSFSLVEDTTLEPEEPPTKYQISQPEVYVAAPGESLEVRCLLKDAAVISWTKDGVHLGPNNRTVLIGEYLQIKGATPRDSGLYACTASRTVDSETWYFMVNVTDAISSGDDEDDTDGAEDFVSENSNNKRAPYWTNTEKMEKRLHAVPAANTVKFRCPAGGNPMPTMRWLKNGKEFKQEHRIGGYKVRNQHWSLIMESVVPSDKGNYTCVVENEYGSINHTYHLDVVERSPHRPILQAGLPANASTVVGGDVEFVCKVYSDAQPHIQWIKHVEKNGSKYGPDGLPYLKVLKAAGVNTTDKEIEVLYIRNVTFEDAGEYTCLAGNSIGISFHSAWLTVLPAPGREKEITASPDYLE

B1: cyclic peptide SEQ ID NO: 78 (peptide)
peptide: WCPQNFINPVQWRYFQHYK(COCH2)N
modifications: thioether 2-19 (inferred)
With B1, the “ELISA luminescence signal at 10 nmol/L peptide, relative to SEQ ID NO: 47 (=1)” value is at least 0.7 ratio.

B2: cyclic peptide SEQ ID NO: 79 (peptide)
peptide: NCPQNFINPVQWRYFQHYK(COCH2)N
modifications: thioether 2-19 (inferred)
Consider B2, for which the “ELISA luminescence signal at 10 nmol/L peptide, relative to SEQ ID NO: 47 (=1)” value was at least 0.7 ratio.

B3: cyclic peptide SEQ ID NO: 82 (peptide)
peptide: TCPQNFINPVQWRYFQHYK(COCH2)N
modifications: thioether 2-19 (inferred)
With B3, the “ELISA luminescence signal at 10 nmol/L peptide, relative to SEQ ID NO: 47 (=1)” value is at least 0.7 ratio.

B4: cyclic peptide SEQ ID NO: 90 (peptide)
peptide: QCPQNFINPVQWRYRQHYK(COCH2)N
modifications: thioether 2-19 (inferred)
As to B4, the “ELISA luminescence signal at 10 nmol/L peptide, relative to SEQ ID NO: 47 (=1)” value fell in the range of 0.1 to 0.5 ratio.

B5: cyclic peptide SEQ ID NO: 88 (peptide)
peptide: QCPQNFINPVQWRYLQHYK(COCH2)N
modifications: thioether 2-19 (inferred)
For the molecule B5, the “ELISA luminescence signal at 10 nmol/L peptide, relative to SEQ ID NO: 47 (=1)” value is at least 0.7 ratio.

B6: cyclic peptide SEQ ID NO: 92 (peptide)
peptide: QCPQNFINPVQWRYFQHFK(COCH2)N
modifications: thioether 2-19
For B6, the “ELISA luminescence signal at 10 nmol/L peptide, relative to SEQ ID NO: 47 (=1)” value is at least 0.7 ratio.

B7: cyclic peptide SEQ ID NO: 93 (peptide)
peptide: QCPQNFINPVQWRYFQHWK(COCH2)N
modifications: thioether 2-19
On to B7, for which the “ELISA luminescence signal at 10 nmol/L peptide, relative to SEQ ID NO: 47 (=1)” value is at least 0.7 ratio.

B8: cyclic peptide SEQ ID NO: 86 (peptide)
peptide: HCPQNFINPVQWRYFQHYK(COCH2)N
modifications: thioether 2-19 (inferred)
For B8, the “ELISA luminescence signal at 10 nmol/L peptide, relative to SEQ ID NO: 47 (=1)” value is at least 0.7 ratio.

B9: cyclic peptide SEQ ID NO: 85 (peptide)
peptide: RCPQNFINPVQWRYFQHYK(COCH2)N
modifications: thioether 2-19 (inferred)
Regarding B9, the “ELISA luminescence signal at 10 nmol/L peptide, relative to SEQ ID NO: 47 (=1)” value is at least 0.7 ratio.

B10: cyclic peptide SEQ ID NO: 83 (peptide)
peptide: DCPQNFINPVQWRYFQHYK(COCH2)N
modifications: thioether 2-19 (inferred)
For the molecule B10, the “ELISA luminescence signal at 10 nmol/L peptide, relative to SEQ ID NO: 47 (=1)” value is at least 0.7 ratio.

B11: cyclic peptide SEQ ID NO: 91 (peptide)
peptide: QCPQNFINPVQWRYFQHVK(COCH2)N
modifications: thioether 2-19
As to B11, the “ELISA luminescence signal at 10 nmol/L peptide, relative to SEQ ID NO: 47 (=1)” value lay in the range of 0.1 to 0.5 ratio.

B12: cyclic peptide SEQ ID NO: 94 (peptide)
peptide: QCPQNFINPVQWRYFQHSK(COCH2)N
modifications: thioether 2-19
For the molecule B12, the “ELISA luminescence signal at 10 nmol/L peptide, relative to SEQ ID NO: 47 (=1)” value was 0.1 to 0.5 ratio.

B13: cyclic peptide SEQ ID NO: 95 (peptide)
peptide: QCPQGFINPVQWRYFQHYK(COCH2)N
modifications: thioether 2-19
With B13, the “ELISA luminescence signal at 10 nmol/L peptide, relative to SEQ ID NO: 47 (=1)” value was 0.1 to 0.5 ratio.

B14: cyclic peptide SEQ ID NO: 84 (peptide)
peptide: ECPQNFINPVQWRYFQHYK(COCH2)N
modifications: thioether 2-19 (inferred)
As for B14, the “ELISA luminescence signal at 10 nmol/L peptide, relative to SEQ ID NO: 47 (=1)” value was at least 0.7 ratio.

B15: cyclic peptide SEQ ID NO: 89 (peptide)
peptide: QCPQNFINPVQWRYYQHYK(COCH2)N
modifications: thioether 2-19 (inferred)
Regarding B15, the “ELISA luminescence signal at 10 nmol/L peptide, relative to SEQ ID NO: 47 (=1)” value lay in the range of 0.5 to 0.7 ratio.

B16: cyclic peptide SEQ ID NO: 81 (peptide)
peptide: SCPQNFINPVQWRYFQHYK(COCH2)N
modifications: thioether 2-19 (inferred)
Consider B16, for which the “ELISA luminescence signal at 10 nmol/L peptide, relative to SEQ ID NO: 47 (=1)” value is at least 0.7 ratio.

B17: cyclic peptide SEQ ID NO: 87 (peptide)
peptide: QCPQNFINPVHWRYFQHYK(COCH2)N
modifications: thioether 2-19 (inferred)
Take B17: the “ELISA luminescence signal at 10 nmol/L peptide, relative to SEQ ID NO: 47 (=1)” value was at least 0.7 ratio.
